Self-cleavage data for 41 variants are collected here from the RNAGym collection of RNA variant scans (doi:10.7554/elife.90254).

First the molecules themselves.
B1: OR4K15 (parent)
chain: GUUAACGGUCAUAGGCCAUGGAAACUAGGAGCACCAUUUCGCUGCCAGUGAAGAAAUGAACAAAGAAAAUCUGGGCCAGGCAGGCAUCAAAAGAAAUAGUCUUGCGCUCAACCAGAAAGUCUGUAAUCAUUUUAAGGGUA

Variants of B1 are the subject of the data set. As to the kind of experiment: self-cleavage, relative activity (ratio to wild type); higher = more cleavage; in vitro, sequencing; the parent is a self-cleaving ribozyme.
For the variant GUUAAAGGUCGUAGGCCAUGGAAACUAGGAGCACCAUUUCGCUGCCAGUGAAGAAAUGAACAAAGAAAAUCUGGGCCAGGCAGGCAUCAAAAGAAAUAGUCUUGCGCUCAACCAGAAAGUCUGUAAUCAUUUUAAGGGUA [C6A A11G], the self-cleavage worked out at 2.1.
The result for GUUAAGGGUCAUAGGCCAAGGAAACUAGGAGCACCAUUUCGCUGCCAGUGAAGAAAUGAACAAAGAAAAUCUGGGCCAGGCAGGCAUCAAAAGAAAUAGUCUUGCGCUCAACCAGAAAGUCUGUAAUCAUUUUAAGGGUA [C6G U19A] reads 1.65; that for GUUAAUGGUCAUAGGCCAUGGAAACUAGGAGCACCAUUUCGCUGCCAGUGAAGAAAUGAACAAAGAAGAUCUGGGCCAGGCAGGCAUCAAAAGAAAUAGUCUUGCGCUCAACCAGAAAGUCUGUAAUCAUUUUAAGGGUA [C6U A68G], 0.79; that for GUUAAAGGUCAUAGGCCAUGGAAACUAGGAGCACCAUUUCGCUGCCAGUGAAGAAAUGAGCAAAGAAAAUCUGGGCCAGGCAGGCAUCAAAAGAAAUAGUCUUGCGCUCAACCAGAAAGUCUGUAAUCAUUUUAAGGGUA [C6A A60G], 0.5.
GUUAUCGGUCAUAGGCCAUGGAAACUAGGAGCACCAUUUCGCUGCCAGUGAAGAAAUGAACAAAGAAAAUCUGGGCCAGGCAGGCAUCAAAAGAAAUAGUCUUGCGCUCAACCAGAAAGUCUGUAAUCAUCUUAAGGGUA [A5U U131C]: the self-cleavage worked out at 1.52.
On to GUUAAGGGUCAUAGGCCAUGGAAACUAGGAGCACCAUUUCGCUGCCAGUGAAGAAAUGAACAAAGAAAAUCUGGGCCAGGCAGGCAUCAAAAGAAAUAGUCUUGCGCUCAACCAGAAAGUCUGUAGUCAUUUUAAGGGUA [C6G A126G], for which the self-cleavage turned out to be 1.2.
Turning to GUUAAGGGUCAUAGGCCAUGGAAACUAGGAGCACCAUUUCGCUGCCAGUGAAGAAAUGAACAAAGAAAAUCUGGGCCAGGCAGGCACCAAAAGAAAUAGUCUUGCGCUCAACCAGAAAGUCUGUAAUCAUUUUAAGGGUA [C6G U87C], the self-cleavage stood at 0.65.
Turning to GUUAAUGGUCAUAGGCCAUGGAAACUAGGAGCACCAUUUCGCUGCCAGUGAAGAAAUGAACAAAGAAAAUCUGGGCCGGGCAGGCAUCAAAAGAAAUAGUCUUGCGCUCAACCAGAAAGUCUGUAAUCAUUUUAAGGGUA [C6U A78G], the self-cleavage stood at 0.4.
With GUUAAUGGUCAUAGGCCAUGGAAACUAGGAGCACCAUUUCGCUGCCAGUGAAGAAAUGAACAAAGAAAAUCUGGGCCUGGCAGGCAUCAAAAGAAAUAGUCUUGCGCUCAACCAGAAAGUCUGUAAUCAUUUUAAGGGUA [C6U A78U], the self-cleavage turned out to be 0.25.
Regarding GUUAAAGGUCAUAGGCCAUGGAAACUAGGAGCACCAUAUCGCUGCCAGUGAAGAAAUGAACAAAGAAAAUCUGGGCCAGGCAGGCAUCAAAAGAAAUAGUCUUGCGCUCAACCAGAAAGUCUGUAAUCAUUUUAAGGGUA [C6A U38A], the self-cleavage was determined as 0.42.
GUUAAUGGUCAUAGGCCAUGGAAACUAGGAGCACCAUUUCGCUGCCAGUGAAGAAAUGAACAAAGAAAAUCUGGGCCAGGCAGGCAUCAAAAGAAGUAGUCUUGCGCUCAACCAGAAAGUCUGUAAUCAUUUUAAGGGUA [C6U A96G]: the self-cleavage was found to be 1.1.
GUUAAUGGUCAUAGGCCAUGGAAACUAGGAGCACCAUUUCGCUGCCAGUGAAGAAAUGAACGAAGAAAAUCUGGGCCAGGCAGGCAUCAAAAGAAAUAGUCUUGCGCUCAACCAGAAAGUCUGUAAUCAUUUUAAGGGUA [C6U A62G]: the self-cleavage turned out to be 0.56.
Then GUUAUCGGUCAUAGGCCAUGGAAACUAGGAGCACCAUUUCGCUGCCAGUGAAGAAAUGAACAAAGAAAAUCUGGGCCAGGCAGGCAUCAAAAGAAAUAGUCAUGCGCUCAACCAGAAAGUCUGUAAUCAUUUUAAGGGUA [A5U U102A], with 1.12; and GUUAAAGGUCAUAGGCCAUGGAAACUAGGAGCACCAUUUCGCUGCCAGUGAAGAAAUGAAUAAAGAAAAUCUGGGCCAGGCAGGCAUCAAAAGAAAUAGUCUUGCGCUCAACCAGAAAGUCUGUAAUCAUUUUAAGGGUA [C6A C61U], with 0.76; and GUUAAUGGUCAUAGGCCAUGGAAACUAGGAGCUCCAUUUCGCUGCCAGUGAAGAAAUGAACAAAGAAAAUCUGGGCCAGGCAGGCAUCAAAAGAAAUAGUCUUGCGCUCAACCAGAAAGUCUGUAAUCAUUUUAAGGGUA [C6U A33U], with 1.05.
With GUUAAUGGUCAUAGGCCAUGGAAACUAGGAGCACCAUUUCGCUGCCAGUGAAGAAAUGAGCAAAGAAAAUCUGGGCCAGGCAGGCAUCAAAAGAAAUAGUCUUGCGCUCAACCAGAAAGUCUGUAAUCAUUUUAAGGGUA [C6U A60G], the self-cleavage turned out to be 0.8.
The result for GUUAAGGGUCAUAGGCCAUGGAAACUAGGAGCACCAUUUCGCUGCCAGUGAAGAAAUGAACAAAGAAAAUCUGGGCCAGGCAGGCAUCAAAAGAAAUAGUCUUGCGCUCAACCAGAAAGUCUGUAAUCACUUUAAGGGUA [C6G U130C] reads 0.63; that for GUUAAAGGUCAUAGGCCAUGGAAACUAGGAGCUCCAUUUCGCUGCCAGUGAAGAAAUGAACAAAGAAAAUCUGGGCCAGGCAGGCAUCAAAAGAAAUAGUCUUGCGCUCAACCAGAAAGUCUGUAAUCAUUUUAAGGGUA [C6A A33U], 1.06; that for GUUAUCGGUCAUAGGCCAUGGAAACUAGGAGCACCAUUUCGCUGCCAGUGAAGAAAUGAACAAAGAAAAUCUGGGCCAGGCAGGCAUCAAAAGAAAUAGUCUUGCGCUCAACCAGAAAGUCUGUAAUCAUUUUAAGGGCA [A5U U139C], 0.93.
Consider GUUAAUGGUCAUAGGCCAUGGAGACUAGGAGCACCAUUUCGCUGCCAGUGAAGAAAUGAACAAAGAAAAUCUGGGCCAGGCAGGCAUCAAAAGAAAUAGUCUUGCGCUCAACCAGAAAGUCUGUAAUCAUUUUAAGGGUA [C6U A23G], for which the self-cleavage was 1.15.
For GUUAAAGGUCAUAGGCCAUGGAAACUAGGAGCACCAUUUCGCUGCCAGUGAAGAAAUGAACAAAGAAAAUCUGGGCCAGGCAGGCAUCAAAAGAAAUAGUCUUGCGCUCAACCAGAAAGUCUGAAAUCAUUUUAAGGGUA [C6A U124A], the self-cleavage turned out to be 0.95.
GUUAAAGGUCAUAGGCCAUGGAAACUAGGAGCACCAUUUCGCUGCCAGUGAAGAGAUGAACAAAGAAAAUCUGGGCCAGGCAGGCAUCAAAAGAAAUAGUCUUGCGCUCAACCAGAAAGUCUGUAAUCAUUUUAAGGGUA [C6A A55G]: the self-cleavage was 1.13.
In the case of GUUAUCGGUCAUAGGCCAUGGAAACUAGGAGCACCAUUUCGCUGCCAGUGAAGAAAUGAACAAAGAAAAUCUGGGCCAGGCAGGCAUCAAAAGAAAUAGCCUUGCGCUCAACCAGAAAGUCUGUAAUCAUUUUAAGGGUA [A5U U100C], the self-cleavage came out at 1.64.
In the case of GUUAAAGGUCAUAGGCCAUGGAAACUAGGAGCACCAUUUCGCUGCCAGUGAAGAAAUGAACAAAGAGAAUCUGGGCCAGGCAGGCAUCAAAAGAAAUAGUCUUGCGCUCAACCAGAAAGUCUGUAAUCAUUUUAAGGGUA [C6A A67G], the self-cleavage worked out at 0.72.
As for GUUAAAGGUCAUAGGCCAUGGAAACUAGGAGCACCAUUUCGCCGCCAGUGAAGAAAUGAACAAAGAAAAUCUGGGCCAGGCAGGCAUCAAAAGAAAUAGUCUUGCGCUCAACCAGAAAGUCUGUAAUCAUUUUAAGGGUA [C6A U43C], the self-cleavage is 0.5.
Consider GUUAAAGGUCAUAGGCCAUGGAAACUAGGAGCACCAUUUCGCUGCCAGUGAAGAAAUGAACAAAGAAAAUCUGGGCCAGGCAGGCAUCUAAAGAAAUAGUCUUGCGCUCAACCAGAAAGUCUGUAAUCAUUUUAAGGGUA [C6A A89U], for which the self-cleavage amounted to 1.38.
Take GUUAUCGGUCAUAGGCCAUGGAAACUAGGAGCACCAUUUCGCUGCCAGUGAAGAAAUGAACAAAGAAAAUCUGGGCCAGGCAGGCAACAAAAGAAAUAGUCUUGCGCUCAACCAGAAAGUCUGUAAUCAUUUUAAGGGUA [A5U U87A]: the self-cleavage stood at 1.2.
The result for GUUAAUGGUCAUAGGCCAUGGAAACUAGGAGCACCAUUUCGCUGCCAGUGAAGAAAUGAACAAAGAAAAUCUGGGCCAGGCAGGCAUCAAAAGAAAUAGUCUUGCGCUCAACCUGAAAGUCUGUAAUCAUUUUAAGGGUA [C6U A114U] reads 0.07; that for GUUAAAGGCCAUAGGCCAUGGAAACUAGGAGCACCAUUUCGCUGCCAGUGAAGAAAUGAACAAAGAAAAUCUGGGCCAGGCAGGCAUCAAAAGAAAUAGUCUUGCGCUCAACCAGAAAGUCUGUAAUCAUUUUAAGGGUA [C6A U9C], 1.47; that for GUUAUCGGUCAUAGGCCAUGGAAACUAGGAGCACCAUUUCGCUGCCAGUGAAGAAAUGAACAAAGAAAACCUGGGCCAGGCAGGCAUCAAAAGAAAUAGUCUUGCGCUCAACCAGAAAGUCUGUAAUCAUUUUAAGGGUA [A5U U70C], 1.03.
Consider GUUAAUGGUCAUAGGCCAUGGAAACUAGGAGCACCAUUUCGCUGCCAGUGAAGAAAUGAACAAAGAAAAUCUGGGCCAGGCGGGCAUCAAAAGAAAUAGUCUUGCGCUCAACCAGAAAGUCUGUAAUCAUUUUAAGGGUA [C6U A82G], for which the self-cleavage worked out at 0.72.
On to GUUAAUGGUCAUAGGCCAUGGAAACUAGGAGCACCAUUUCGCUGCCAGUGAAGGAAUGAACAAAGAAAAUCUGGGCCAGGCAGGCAUCAAAAGAAAUAGUCUUGCGCUCAACCAGAAAGUCUGUAAUCAUUUUAAGGGUA [C6U A54G], for which the self-cleavage was 0.92.
For GUUAAUGGUCGUAGGCCAUGGAAACUAGGAGCACCAUUUCGCUGCCAGUGAAGAAAUGAACAAAGAAAAUCUGGGCCAGGCAGGCAUCAAAAGAAAUAGUCUUGCGCUCAACCAGAAAGUCUGUAAUCAUUUUAAGGGUA [C6U A11G], the self-cleavage came out at 0.47.
Regarding GUUAUCGGUCAUAGGCCAUGGAAACUAGGAGCACCAUUUCGCUGCCAGUGAAGAAAUGAACAAAGAAAAUCUGGGCCAGGCAGGCAUCAAAAGAAAUAGUCUUGCGCUCAACCAGAAAGCCUGUAAUCAUUUUAAGGGUA [A5U U120C], the self-cleavage turned out to be 0.76.
The result for GUUAAAGGUCAUAGGCCAUGGAAACUAGGAGCACCAUUUCGCUGCCAGUGAAGAAAUGAACAAAGAAAAUCUGGGCCAGGCAGGCAUCAAAAGGAAUAGUCUUGCGCUCAACCAGAAAGUCUGUAAUCAUUUUAAGGGUA [C6A A94G] reads 0.36.
Turning to GUUAUCGGUCAUAGGCCAUGGAAACUAGGAGCACCAUUUCGCUGCCAGUGAAGAAAUGAACAAAGAAAAUCUGGGCCAGGCAGGCAUCAAAAGAAAUAGUCUUGCGCUCAACCAGAAAGUCUGCAAUCAUUUUAAGGGUA [A5U U124C], the self-cleavage worked out at 0.99.
Regarding GUUAAUGGUCAUAGGCCAUGGAAACUAGGAGCACCAUUUCGCUGCCAGUGAAGAAAUGAACAAAGAGAAUCUGGGCCAGGCAGGCAUCAAAAGAAAUAGUCUUGCGCUCAACCAGAAAGUCUGUAAUCAUUUUAAGGGUA [C6U A67G], the self-cleavage was 1.39.
As for GUUAAAGGUCAUAGGCCAUGGAAACUAGGAGCACCAUUUCGCUGCCAGGGAAGAAAUGAACAAAGAAAAUCUGGGCCAGGCAGGCAUCAAAAGAAAUAGUCUUGCGCUCAACCAGAAAGUCUGUAAUCAUUUUAAGGGUA [C6A U49G], the self-cleavage was 0.61.
For GUUAAAGGUCAUAGGCCAUGGAAACUAGGAGCACCAUUUCGCUGCCAGUGAAGAAAUGAACAAAGAAAAUCUGGGCCAGGCAGGCAUCAAAAGAAAUAGUCUUGCGCUCAACCAGAAAGUCUGUGAUCAUUUUAAGGGUA [C6A A125G], the self-cleavage was determined as 0.29.
For the variant GUUAAAGGUCAUAGGCCAUGGAAACUAGGAGCACCAUUUCGCUGCCAGUGAAGAAAUGAACAAAGAAAAUCUGGGCCAGGCAGGCAUCAAAAGAAAUAGUCUUGCGCUCAACCAGGAAGUCUGUAAUCAUUUUAAGGGUA [C6A A116G], the self-cleavage worked out at 0.77.
GUUAAUGGUCAUAGGCCGUGGAAACUAGGAGCACCAUUUCGCUGCCAGUGAAGAAAUGAACAAAGAAAAUCUGGGCCAGGCAGGCAUCAAAAGAAAUAGUCUUGCGCUCAACCAGAAAGUCUGUAAUCAUUUUAAGGGUA [C6U A18G]: the self-cleavage worked out at 0.91.
